Laboratory results as given in patent US20150160214A1, “Quantitation of Cellular Adhesion Dynamics Across Immobilized Receptors Under Rheological Shear Flow” (Mayo Foundation for Medical Education and Research, priority 2013, published 2015).
“Also recorded” adds a separate entry of the source.

B1: N-terminal peptide (QEPGGLVVPPTDAPVSPTTLYVE) corresponding to vWF residues Q1238-E1260 (peptide)
peptide: H-QEPGGLVVPPTDAPVSPTTLYVE-OH
notes: Synthetic peptide; also called free N-terminal peptide; N-terminal linker peptide

How the values were obtained:
platelet GPIbα = molecular target: T1, platelet GPIbα (Homo sapiens, UniProt P07359); experiment: Platelet adhesion to surface captured disulfide-intact A1 and RCAM A1 under shear flow (Example 2); assay type: cell-based
T1 construct: endogenous in cells; host or cells: platelets in citrated whole blood of normal healthy volunteer donors
Description: The interaction of disulfide-intact A1 and of RCAM A1 with platelets was studied by immobilizing the proteins via the 6×His-Tag on Cellix biochips in which the internal channel surface was coated with a Cu2+ chelating chemistry. A 5 μM concentration of protein was immobilized in the biochip and citrated whole blood was perfused at a shear rate of 800 s−1 (FIG. 11B). This perfusion was followed by TBS buffer and after red blood cells cleared the channel, the shear was decremented to 100 s−1 or incremented to 9000 s−1 every two minutes at logarithmic intervals. Surface bound platelets were allowed to equilibrate at a given shear rate for 50 s and a 60 s video at 24 frames per second was recorded and analyzed as described in the methods. The internal channel surface lacking immobilized A1 domain was completely inert to platelets.
At each shear rate, platelet mean pause times and mean translocation velocities were calculated from the X-Y trajectories of moving platelets as described in the methods. Approximately 1000 platelet trajectories were analyzed at each shear rate (FIGS. 11B to 11D). The mean pause times were also calculated from the pause time survival fraction obtained from the cumulative integral of the pause time distribution (FIG. 11B) (Thomas:2006). The survival fraction exponentially decreases with faster decay rates as shear increases. Fitting the survival fraction with a bi-exponential decay function results in the apparent rate constants and amplitudes as a function of shear rate (FIG. 11C).
The determination and analysis of platelet pause times and instantaneous translocation velocities over surface captured A1 and RCAM A1 was performed as previously described (Tischer:2013). Here, the inventor used the Cellix Mims Evo syringe pump controlled by VenaFluxAssay (www.cellixltd.com). Vena8™ CGS biochips were custom designed with 800 μm width by 80 μm height microchannels bonded to glass slides with a Cu^2+ chelated PEG surface serviced by Microsurfaces Inc. (www.proteinslides.com/histag.html) to which the A1 and RCAM A1 in TBS were captured by the 6×His-Tag at a total concentration of 5 μM. Citrated whole blood was obtained from the informed consent of healthy volunteer donors with approval from the Mayo Clinic Institutional Review Board and 100 μL was perfused over the surface captured A1 domains at […]. The shear was increased or decreased in a stepwise manner to measure the dynamics of platelet adhesion at high and low shear. After allowing the flow chamber to equilibrate for 50 s at each shear rate, 1 min movies were recorded at 24 frames per second in phase contrast at 200× magnification with 2×2 pixel binning on a Zeiss AxioCam Mrm camera (6.45 μm/px) attached to a Zeiss Axio Observer.D1 inverted microscope. Tracking analysis was performed using MediaCybernetics ImagePro® Premier (www.mediacy.com/index.aspx?page=IP\_Premier) The distance travelled in the direction of flow was calculated from the coordinate data for each platelet as a function of time using √{square root over ((xt−x0)^2)}, where x0 is the coordinates of a platelet on the first frame of the movie and xt is the coordinate on subsequent frames of the movie. These trajectories were differentiated into instantaneous velocities using a Savitzky-Golay algorithm (Savitzky:1964) with a five data point window size and a second order polynomial implemented into a Mathematica (www.wolfram.com/mathematica) notebook written in our lab. Trajectories were retained for statistical analysis if the platelet was present for ≧1 s and travelled a total distance greater than 1 Distance travelled in pixels (px) was converted to (μm) using 6.45 μm/px*2/200=0.0645 μm/px. Pause times were determined by the amount of time (sec) a platelets velocity was 0±4 px/s≅0±0.23 μm/s, within the noise. Data are reported as mean velocities and pause times attained by individual platelets averaged over all platelets analyzed. […]

[1] = Secondary structure contribution calculated from CD-spectra (CDNN); assay type: physicochemical; details: calculated from CD-spectra, CDNN
Description: Fluorescence and circular dichroism spectra of A1 and of RCAM A1 were measured to compare the basic spectroscopic properties of the two protein variants (FIG. 13). The fluorescence spectrum of native A1 has a relatively low intensity with λmax of ˜345 nm. In presence of 2 M GdnHCl the fluorescence intensity increases as the interior of the protein becomes solvent accessible and a red shift of the spectrum to ˜351 nm occurs. […] Nevertheless, RCAM A1 is still retains significant secondary structure content in solution; the distribution of which is summarized in Table 1. In the near UV, the CD of disulfide-intact A1 show a well-defined spectral banding pattern between 260 and 300 nm indicating significant tertiary structure content that is absent in RCAM A1.
(§1) Urea and GdnHCl induced unfolding of A1 and of RCAM A1 at 25° Celsius was monitored via CD at 222 nm on an Aviv Biomedical Model 420C circular dichroism spectrometer. A 1 mm quartz cuvette and protein concentrations of 5 or 10 μM were used. Samples were equilibrated in their urea or GdnHCl containing buffer at 25° Celsius overnight. CD-signal was averaged for 5 to 10 min using an integration time of 1 s. CD-spectra were measured at 20° Celsius using 0.1 or 1 mm quartz cells with a step width of 1 nm between 190 and 260 nm with an integration time of 20 s and a bandwidth of 1 nm. CD-spectra in the near UV range (260-360 nm) were recorded using a 5 cm quartz cell with a 120 s integration time. Transition curves and protein spectra were corrected for the CD Signal of the corresponding buffer.

[2] = GdnHCl- and urea-induced unfolding at 25° C. by circular dichroism (Example 2); assay type: physicochemical; details: GdnHCl, CD
Description: The thermodynamic stability of A1 and of RCAM A1 was determined from GdnHCl and urea induced unfolding measured via CD and FL at 25° Celsius (FIG. 14). […] Complete unfolding of A1 and of RCAM A1 occurs in GdnHCl but not in urea. However, in presence of urea, a small expansion of RCAM A1 compared to A1 in its intermediate state is observed.
as §1

[3] = Irreversible thermal denaturation by CD, intrinsic fluorescence and ANS fluorescence (Example 2); assay type: physicochemical
Description: The unfolding of disulfide-intact A1 and RCAM A1 was also monitored via CD at 222 nm, intrinsic protein fluorescence at 280 nm/359 nm and ANS fluorescence at 350 nm/495 nm as a function of temperature.
CD thermalscans were recorded between 10 and 95° Celsius at 222 nm with a protein concentration of 1 μM in a 1 cm quartz cell under moderate stirring. Prior to each measurement protein samples were equilibrated at 10° Celsius for 10-15 min in order to obtain a stable baseline. The scanrate for all Thermalscans was 2° Celsius/min. The integration time for each data point was 20 s, the bandwidth 1 nm. All measured CD data were converted into mean molar ellipticities per amino acid residue.
Thermalscans monitoring protein fluorescence were recorded at an emission wavelength of 359 nm after excitation at 280 nm using a protein concentration of 2 μM in a 1 cm quartz cell under moderate stirring. ANS-Thermalscans were recorded at 495 nm after Excitation at 350 nm using 1 μM protein and 100 μM ANS. Prior to any performed thermalscan samples were equilibrated for 10-15 min. The scanrate was 2° Celsius/min. At each temperature between 10 or 20° Celsius and 95° Celsius relative fluorescence intensity was collected for 4 s and averaged.

[4] = Acrylamide quenching of tryptophan fluorescence (Stern-Volmer); assay type: physicochemical; details: buffer, 20° Celsius
Description: This was also confirmed via acrylamide induced tryotophan fluorescence quenching performed with an excitation wavelength of 295 nm.
Initially a quenching determination was performed with disulfide-intact A1 at 20° Celsius and at 1° Celsius in order to distinguish between static and collisional quenching. […] Clear evidence for collisional quenching could be obtained for the A1-domain since the Stern-Volmer constant decreased from 2.6±0.03 to 2.2±0.03 M−1, FIG. 16A, ruling out a static quenching mechanism.
Acrylamide quenching of tryptophan was performed using an excitation wavelength of 295 nm. After the addition of a certain amount of buffered acrylamide solution the protein solution was equilibrated for ˜5 min and then a fluorescence spectrum between 320 and 400 nm was recorded. Stern-Volmer constants were determined from the fluorescence intensity at 359 nm using the Stern-Volmer equation as described by Lakowicz (Lakowicz:2006)
where KD is the Stern-Volmer quenching constant and KD-1 is the concentration of acrylamide at which F0/F=2 and 50% of the fluorescence intensity is quenched.

Solubility (observation) = assay type: physicochemical
[5] = molecular target: T2, Recombinant human vWF A1-1261 (amino acids D1261-P1471), N-terminal truncated variant (human, UniProt P04275 1261-1471); experiment: thermal unfolding by Trp fluorescence at 2 °C/min; value without peptide
T2 construct: Lacks the linker residues Q1238-E1260; also called truncated A1
Excerpt: (§2) The only way to examine such a stabilization using spectroscopy was the measurement of thermal unfolding via fluorescence. Since the N-terminal peptide also contains a single tyrosine residue, the excitation wavelength was changed to λ=295 nm in order to measure tryptophan fluorescence and the effect of the peptide on the unfolding of the A1-domain was observed indirectly. […] Thermal scans were also done in the presence of a peptide with the same amino acid composition, but a scrambled sequence. The inset of FIG. 7A compares the raw fluorescence thermal scans in the presence of 300 μM scrambled and N-terminal peptides. Unfolding in the presence of excess scrambled peptide was equivalent to unfolding in the absence of either peptide. […] Fitting the enthalpy data to a simple single site binding model yields a dissociation constant of ≈46±6 μM.

[6] = molecular target: T2, Recombinant human vWF A1-1261 (amino …); experiment: thermal unfolding by Trp fluorescence at 2 °C/min; value at saturating peptide
Excerpt: as §2

[7] = molecular target: T2, Recombinant human vWF A1-1261 (amino …); experiment: thermal unfolding by Trp fluorescence, 0.02-300 µM peptide; value without peptide
Excerpt: as §2

[8] = molecular target: T2, Recombinant human vWF A1-1261 (amino …); experiment: thermal unfolding by Trp fluorescence, 0.02-300 µM peptide; value at saturating peptide
Excerpt: as §2

[9] = molecular target: T3, Recombinant human vWF A1-1238 (amino acids Q1238-P1471) (human, UniProt P04275 1238-1471); experiment: unfolding enthalpy from fluorescence thermal scans of A1-1238 against total peptide concentration
T3 construct: captured on Cu2+ chelate surfaces by the His tag in the flow chamber assays; also called WT A1; disulfide-intact A1; not shown: N-terminal 6xHis-Tag from the Qiagen pQE-9 vector

[10] = molecular target: T2, Recombinant human vWF A1-1261 (amino …); experiment: unfolding enthalpy from fluorescence thermal scans of 2 µM A1-1261 against total peptide concentration
Excerpt: as §2

[11] = molecular target: T2, Recombinant human vWF A1-1261 (amino …); experiment: thermal unfolding enthalpy of 2 µM A1-1261 (Trp fluorescence) against peptide concentration, single site binding model
Excerpt: as §2

| Molecule | Total number of platelets interacting, relative to disulfide-intact A1 (platelet GPIbα) | Velocity of a platelet translocating on the domain (platelet GPIbα; 1025 s−1) | Platelet translocation on surface-immobilized domain (platelet GPIbα; all applied shear rates, up to 9000 s−1) | % α-Helix [1] [%] | % β-sheet [1] [%] | cm, I ⇄ D [2] [M] | m-value, I ⇄ D [2] [kJ/mol/M] | ΔG^0, I ⇄ D [2] [kJ/mol] | Cooperative thermal unfolding transition ([3]; CD, intrinsic fluorescence and ANS fluorescence) | Temperature at which protein aggregation begins in thermal scan ([3]; absence of urea) [° Celsius] | Stern-Volmer constant [4] [M⁻¹] | Solubility (Solubility (observation)) | apparent TM of A1-1261 without and with saturating peptide [5] [° Celsius] | apparent TM of A1-1261 without and with saturating peptide [6] [° Celsius] | unfolding enthalpy of A1-1261 without and with saturating peptide [7] [kJ/mol] | unfolding enthalpy of A1-1261 without and with saturating peptide [8] [kJ/mol] | binding result [9] | EC50 (read off the curve) [10] [µM] | Kd [11] [µM] |
| --- | --- | --- | --- | --- | --- | --- | --- | --- | --- | --- | --- | --- | --- | --- | --- | --- | --- | --- | --- |
| RCAM A1: vWF A1 domain (Q1238-P1471) with disulfide bond reduced and carboxyamidated; molten globule model of intermediate state | less, by approximately half | statistically zero | did not translocate across the surface at all applied shear rates; also recorded: firm adhesion with no platelet translocation | 25 | 22 | 3.83 ± 0.03 | −7.49 ± 0.49 | 28.69 ± 1.89 | absent | ~40 | 5.6 ± 0.4 | low solubility |  |  |  |  |  |  |  |
| B1 |  |  |  |  |  |  |  |  |  |  |  |  | 53 | 55.5 | 197 | 242 | no binding (tested: 100 µM) | ~30 | ~46 |
